Earlier results in paper PMC9090500.

Biological target: IL18 (Homo sapiens) (UniProt Q14116)
Sequence (Q14116 37-193): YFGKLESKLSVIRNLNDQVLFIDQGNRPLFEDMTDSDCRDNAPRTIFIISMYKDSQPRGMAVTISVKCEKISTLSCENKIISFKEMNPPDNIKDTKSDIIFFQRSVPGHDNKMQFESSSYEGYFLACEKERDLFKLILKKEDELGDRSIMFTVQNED

Chain of IL18BP (O95998 31-194): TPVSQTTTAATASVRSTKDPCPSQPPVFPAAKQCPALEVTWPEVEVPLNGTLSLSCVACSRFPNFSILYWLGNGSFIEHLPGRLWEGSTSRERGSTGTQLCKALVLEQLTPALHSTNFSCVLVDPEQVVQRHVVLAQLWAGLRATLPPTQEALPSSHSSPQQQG

In the case of IL18BP (from UniProt O95998), the Kd is listed as 400 nM.
